Series [1] concerns the molecule itself. Description: electron microscopy; cross-linked Dam1 complex on MTs examined by EM.
Series [2] deals with the molecule itself. The experiment in a line: TIRF microscopy, tracer residence time; GFP-tagged and unlabelled versions of the same mutant Dam1 complex mixed 1:100 to 2 nM in all (20 pM tracer), on immobilised MTs; BRB80, 0.8 mg/ml kappa-casein, 50 mM KCl, oxygen scavengers; concentrations that support oligomeric rings.

B1: Dam1 complex (complex, yeast)
chain 1: MDSASKEETLEKLDQEITVNLQKIDSNLSFCFHKITQDIIPHVATYSEICERIMDSTEWLGTMFQETGLVNLQANAAAPVGNAPVKSLVSNNVGIFPTSAEEASRQSQTDNGPNEADSAVHVNRDVHSMFNNDSIDDFHTANITSTGQILKLPDSSDEDTGSEAVPSREQTDLTGEGHGGADDEQDESTIQRQSRKRKISLLLQQQYGSSSSMVPSPIVPNKMRKQLAHEEHINNDGDNDDENSNNIESSPLKQGHHHPKGQADDNNEGPDEEESTKEVPKPGTIIHFSTNR
chain 2: MMASTSNDEEKLISTTDKYFIEQRNIVLQEINETMNSILNGLNGLNISLESSIAVGREFQSVSDLWKTLYDGLESLSDEAPIDEQPTLSQSKTK
chain 3: MDSIDEQIAIKRKELQSLQKITSLTDGLKIQLTELNEQIKEMGMNADSVAQLMNNWDSIINNISQASLGLLQYAEGDYEIGPWKDSKKKESEQSNETGLEAQENDKNDEDNDEDEDLVPLPETMVRIRVDGNE
chain 4: MEHNLSPLQQEVLDKYKQLSLDLKALDETIKELNYSQHRQQHSQQETVSPDEILQEMRDIEVKIGLVGTLLKGSVYSLILQRKQEQESLGSNSK
chain 5: MENPHEQVQANILSRIIGNVKRLNESVAILNQELVTINNRNKNLEIMGAICDNYHSSVQFNLEATNNKKPPL
chain 6: MSEDKAKLGTTRSATEYRLSIGSAPTSRRSSMGESSSLMKFADQEGLTSSVGEYNENTIQQLLLPKIRELSDSIITLDSNFTRLNFIHESLADLNESLGSLLYGIMSNSWCVEFSQAPHDIQDDLIAIKQLKSLEDEKNNLVMELSNMERGIKRKKDEQGENDLAKASQNKQFNQPLFPSSQVRKYRSYDNRDKRKPSKIGNNLQVENEEDYEDDTSSEASFVLNPTNIGMSKSSQGHVTKTTRLNNNTNSKLRRKSILHTIRNSIASGADLPIENDNVVNLGDLHPNNRISLGSGAARVVNGPVTKNRNSMFSGRAERKPTESRHSVAKKTEKKINTRPPFR
chain 7: MSEQSQLDDSTIDKLIPQIFNEMRSNLNNTTNKFPKSTGGGASDNISANSNSIRSFNSITTQSLLKESESLDKITAMIKNVTAALKNNLPVYVNQVHEVCKSTNSILDSWINIHSQAGYIHKLMSDQTYLKLINDRLHNENVNTNDEDGSTLHNVIALKKKEILDLRQKLENRKGEKDAAPAKPPNQGLNPRYGVQSGRRPVPSAGISNNGRVRKTHVPASKRPSGIPRVTNRWTKPTASSSRKMFR
chain 8: MNANKQRQYNQLAHELRELQTNLQETTKQLDIMSKQCNENLVGQLGKVHGSWLIGSYIYYMEQMLGKTQ
chain 9: MTDALEQSVLALEGTVSVLKDSVESLKCANEPSTNLASTMLQTKRVFRLVPEYDVERSKLDLIEEVEPLVRTLGDKLRKSMGRMQRELDTLQQTYELNDLRLKKNISMDDDDALNSPDMGQEYEGRDADDVVMMASSTNEELEELKKLKEKKKQLENKLEILKQK
chain 10: MGESLDRCIDDINRAVDSMSTLYFKPPGIFHNAILQGASNKASIRKDITRLIKDCNHDEAYLLFKVNPEKQSVSRRDGKEGVFDYVIKRDTDMKRNRRLGRPGEKPIIHVPKEVYLNKDRLDLNNKRRRTATTSGGGLNGFIFDTDLIGSSVISNSSSGTFKALSAVFKDDPQIQRLLYALENGSVLMEEESNNQRRKTIFVEDFPTDLILKVMAEVTDLWPLTEFKQDYDQLYHNYEQLSSKLRFIKKEVLLQDDRLKTMSQYHPSSSHDVAKIIRKEKDEIRRLEMEIANLQE
notes: Ten different subunits; also called Dam1 kinetochore complex; free Dam1 complex; copies: + + + + + + + + +
With B1, in series [1], the binding result is recorded as “binds”.

B2: Dam1-GFP NP complex, phosphorylated by Ipl1 (Dam1p S257A, S265A, S292A, Ask1p S200A, Spc34p T199A; Dam1p S20 phosphorylated) (complex, yeast)
chain 1: MDSASKEETLEKLDQEITVNLQKIDSNLSFCFHKITQDIIPHVATYSEICERIMDSTEWLGTMFQETGLVNLQANAAAPVGNAPVKSLVSNNVGIFPTSAEEASRQSQTDNGPNEADSAVHVNRDVHSMFNNDSIDDFHTANITSTGQILKLPDSSDEDTGSEAVPSREQTDLTGEGHGGADDEQDESTIQRQSRKRKIALLLQQQYGSSSSMVPSPIVPNKMRKQLAHEEHINNDGDNDDENSNNIESSPLKQGHHHPKGQADDNNEGPDEEESTKEVPKPGTIIHFSTNR
chain 2: MMASTSNDEEKLISTTDKYFIEQRNIVLQEINETMNSILNGLNGLNISLESSIAVGREFQSVSDLWKTLYDGLESLSDEAPIDEQPTLSQSKTK
chain 3: MDSIDEQIAIKRKELQSLQKITSLTDGLKIQLTELNEQIKEMGMNADSVAQLMNNWDSIINNISQASLGLLQYAEGDYEIGPWKDSKKKESEQSNETGLEAQENDKNDEDNDEDEDLVPLPETMVRIRVDGNE
chain 4: MEHNLSPLQQEVLDKYKQLSLDLKALDETIKELNYSQHRQQHSQQETVSPDEILQEMRDIEVKIGLVGTLLKGSVYSLILQRKQEQESLGSNSK
chain 5: MENPHEQVQANILSRIIGNVKRLNESVAILNQELVTINNRNKNLEIMGAICDNYHSSVQFNLEATNNKKPPL
chain 6: MSEDKAKLGTTRSATEYRLSIGSAPTSRRSSMGESSSLMKFADQEGLTSSVGEYNENTIQQLLLPKIRELSDSIITLDSNFTRLNFIHESLADLNESLGSLLYGIMSNSWCVEFSQAPHDIQDDLIAIKQLKSLEDEKNNLVMELSNMERGIKRKKDEQGENDLAKASQNKQFNQPLFPSSQVRKYRSYDNRDKRKPSKIGNNLQVENEEDYEDDTSSEASFVLNPTNIGMSKSSQGHVTKTTRLNNNTNSKLRRKAILHTIRNAIASGADLPIENDNVVNLGDLHPNNRIALGSGAARVVNGPVTKNRNSMFSGRAERKPTESRHSVAKKTEKKINTRPPFR
chain 7: MSEQSQLDDSTIDKLIPQIFNEMRSNLNNTTNKFPKSTGGGASDNISANSNSIRSFNSITTQSLLKESESLDKITAMIKNVTAALKNNLPVYVNQVHEVCKSTNSILDSWINIHSQAGYIHKLMSDQTYLKLINDRLHNENVNTNDEDGSTLHNVIALKKKEILDLRQKLENRKGEKDAAPAKPPNQGLNPRYGVQSGRRPVPSAGISNNGRVRKTHVPASKRPSGIPRVTNRWTKPTASSSRKMFR
chain 8: MNANKQRQYNQLAHELRELQTNLQETTKQLDIMSKQCNENLVGQLGKVHGSWLIGSYIYYMEQMLGKTQ
chain 9: MTDALEQSVLALEGTVSVLKDSVESLKCANEPSTNLASTMLQTKRVFRLVPEYDVERSKLDLIEEVEPLVRTLGDKLRKSMGRMQRELDTLQQTYELNDLRLKKNISMDDDDALNSPDMGQEYEGRDADDVVMMASSTNEELEELKKLKEKKKQLENKLEILKQK
chain 10: MGESLDRCIDDINRAVDSMSTLYFKPPGIFHNAILQGASNKASIRKDITRLIKDCNHDEAYLLFKVNPEKQSVSRRDGKEGVFDYVIKRDTDMKRNRRLGRPGEKPIIHVPKEVYLNKDRLDLNNKRRRTATTSGGGLNGFIFDTDLIGSSVISNSSSGTFKALSAVFKDDPQIQRLLYALENGSVLMEEESNNQRRKAIFVEDFPTDLILKVMAEVTDLWPLTEFKQDYDQLYHNYEQLSSKLRFIKKEVLLQDDRLKTMSQYHPSSSHDVAKIIRKEKDEIRRLEMEIANLQE
modifications: phosphoserine at S20 (by Ipl1 kinase, nearly stoichiometric)
notes: GFP-tagged complex, detected by its GFP; In the tracer assay 20 pM of this complex met 2 nM of the same phosphorylated mutant complex without GFP; also called Dam1 NP phos; Dam1 NP; source: recombinant Dam1 complex (E. coli BL21 Rosetta, purified); phosphorylated with GST-Ipl1, GST-Sli15 (554-698) and 10 mM ATP, 90 min, 30 °C; copies: + + + + + + + + +
In the case of B2, the “fold increase of the average residence time on MTs against single molecules” value in series [2] was 2 fold.

(Values after publication PMC4660060, “The molecular architecture of the Dam1 kinetochore complex is defined by cross-linking based structural modelling” (Nature Communications, 2015).)
